Assay results reported in publication PMC3199733, “Expression, purification, electron microscopy, N-glycosylation mutagenesis and molecular modeling of human P2X4 and Dictyostelium discoideum P2XA” (Biochimica et Biophysica Acta, 2011).
“And” between values parts separate entries of the source, which are not always exact repeats. Equal entries are not always repeated.

B1: Dictyostelium discoideum P2XA-(His)6 (receptor, UniProt Q86JM7 1-378, looked up)
chain: MGFSFDWDDIFQYSTVKIVRIRDRRLGILHLSFLVGIVAYIVVYSAIIKKGYLFTEVPIGSVRTSLKGPNTFASNLTYCSNQQHNGSTYPFTPLECNYWDEQLALFPVGQDSTFTCTTRVRLSKQEANCNFTDPTCKFVDEPGSAKNIYIADIESFTILIDHTMYASSSGSQFNAVDLHGYILNQDGDEVQIDANGTSIGVSGKPDIMTIGQLLSFGGVSLDQASPVDSNVSIRYDGVVLFVFITYSNTYTYSTSDFKYVYSVQQIANTIYDVPETIILESIHSRLLYKRHGIRVIFIQTGTIGSFHFQTLLLTLVSGLGLLAVATTVVDQLAIRLLPQRKSYSSLKFQVTESMSNPMKKRITTDEGEDVLYTRIEGL
notes: P2XA receptor of Dictyostelium discoideum, full-length wild type, from a human codon-optimised cDNA; N-glycosylated (insect-cell type); also called DdP2XA; DdP2XA-(His)6; source: Sf9 cells, baculovirus-infected; in detergent-solubilised membranes, and purified (Ni-sepharose, preparative PFO-PAGE)
B2: human P2X4-(His)10 (receptor, UniProt Q99571 1-388, looked up)
chain: MAGCCAALAAFLFEYDTPRIVLIRSRKVGLMNRAVQLLILAYVIGWVFVWEKGYQETDSVVSSVTTKVKGVAVTNTSKLGFRIWDVADYVIPAQEENSLFVMTNVILTMNQTQGLCPEIPDATTVCKSDASCTAGSAGTHSNGVSTGRCVAFNGSVKTCEVAAWCPVEDDTHVPQPAFLKAAENFTLLVKNNIWYPKFNFSKRNILPNITTTYLKSCIYDAKTDPFCPIFRLGKIVENAGHSFQDMAVEGGIMGIQVNWDCNLDRAASLCLPRYSFRRLDTRDVEHNVSPGYNFRFAKYYRDLAGNEQRTLIKAYGIRFDIIVFGKAGKFDIIPTMINIGSGLALLGMATVLCDIIVLYCMKKRLYYREKKYKYVEDYEQGLASELDQ
notes: human P2X4 receptor, full-length wild type; N-glycosylated (insect-cell type); also called hP2X4; source: Sf9 cells, baculovirus-infected; in membranes, untreated or detergent-solubilised

Biological target: the molecule itself
Test: native gel or EMSA; non-denaturing PFO-PAGE (6% gels, 4% PFO) with anti-His Western blot of Sf9 membranes, untreated (Total) or solubilised in 1% (w/v) detergent (DDM, beta-OG, TX-100, FC-12, C12E8, LDAO) in TBS, 1 h on ice

Protein	stoichiometry N
B1	3
B2	2 and 3
